Experimental data as given in article PMC4775219 (eLife, 2016).

Biological target: T1, Full-length H-Ras (SNAPtag-(GAGS)2x-MBP-H-Ras-DoubleHisTag) (human, UniProt P01112 1-189, SNAP-Cell 430 dye on the SNAP-tag)
T1 construct: H-Ras GTPase, human, full length; loaded with GDP or GTP as the experiment says; Held on Ni beads by the C-terminal double His tag; The nucleotide state (GDP or GTP) is a condition of the assay; also called wild-type Ras; WT Ras; source: E. coli BL21(T1R), purified (Ni-NTA, amylose, gel filtration Superdex S200); not shown: SNAP-tag, N-terminal, kept; DoubleHisTag (10xHis-(GAGS)3x-6xHis), …
Assay: recruitment of fluorescent effector to Ras-loaded beads, spinning disk confocal microscopy; two competing effectors, each with its own fluorophore, in equivalent amounts on the same Ras-loaded beads; 2 uM RasGRF GEF step input, 5 mM GTP; GAP-free or with NF1-GAP
Settings: both partners purified

output amplitude, fold lower than C-Raf RBD (GAP-free two-effector network): 20 times lower
B1: RBD from the A-Raf kinase (SNAPtag-(GAGS)2x-MBP-ARafRBD-StrepII) (domain or fragment, UniProt P10398 19-91, looked up)
chain: GTVKVYLPNKQRTVVTVRDGMSVYDSLDKALKVRGLNQDCCVVYRLIKGRKTVTAWDTAIAPLDGEELIVEVL
modifications: SNAP-Surface 488 or SNAP-Surface 549 dye on the SNAP-tag
notes: source: E. coli BL21(T1R), purified (Streptactin, amylose, gel filtration Superdex S75); not shown: SNAP-tag, N-terminal, kept
